# Source: patent publication US11278600B2, “Human alpha-galactosidase variants” (Codexis, Inc., priority 2014, dated 2022)
# Tests used:
# Format in all cases: biochemical
# [1] = HTP-analysis of yeast culture supernatants, no challenge (MUGal hydrolysis); conditions: activity of the variant/activity of WT GLA (SEQ ID NO: 5), yeast supernatant
# Description: (§1) Yeast (INVSc1) cells transformed with vectors expressing GLA and GLA variants using the lithium acetate method were selected on SD-Ura agar plates. After 72 h incubation at 30° C. colonies were placed into the wells of Axygen® 1.1 ml 96-well deep well plates filled with 200 μl/well SD-Ura broth (2 g/L SD-Ura, 6.8 g/L yeast nitrogen base without amino acids [Sigma Aldrich]), 3.06 g/L sodium dihydrogen phosphate, 0.804 g/L disodium hydrogen phosphate, pH 6.0 supplemented with 6% glucose. The cells were allowed to grow for 20-24 hours in a Kuhner shaker (250 rpm, 30° C., and 85% relative humidity). Overnight culture samples (20 μL) were transferred into Corning Costar® 96-well deep plates filled with 380 µL of SD-ura broth supplemented with 2% glucose. The plates were incubated for 66-84 h in a Kuhner shaker (250 rpm, 30° C., and 85% relative humidity). The cells were then pelleted (4000 rpm×20 min), and the supernatants isolated and stored at 4° C. prior to analysis.
# GLA variant activity was determined by measuring the hydrolysis of 4-methylumbelliferyl α-D-galactopyranoside (MUGal). For this assay, 5-50 μL, of yeast culture supernatant produced as described above, was mixed with 0-45 μL, of McIlvaine Buffer (McIlvaine, J. Biol. Chem., 49:183-186 [1921]), pH 4.8 and 50 μL of 2 mM MUGal in 50 mM citrate, 200 mM KCl, pH 4.6 in a 96-well, black, opaque bottom plate. The reactions were mixed briefly and incubated at 37° C. for 30-180 minutes, prior to quenching with 100 μL, of 1 M sodium carbonate. Hydrolysis was analyzed using a SpectraMax® M2 microplate reader monitoring fluorescence (Ex. 355 nm, Em. 448 nm).
# [2] = HTP-analysis of supernatants pretreated with acid (MUGal hydrolysis); conditions: challenge at pH 4.3; activity of the variant/activity of WT GLA (SEQ ID NO: 5); yeast supernatant
# Description: as §1
# GLA variants were challenged with acidic buffer to simulate the extreme pHs that the variants may encounter in lysosomes. First, 50 μL of yeast culture supernatant and 50 uL of McIlvaine buffer (pH 3.3-4.3) were added to the wells of a 96-well round bottom plate. The plates were sealed with a PlateLoc Thermal Microplate Sealer (Agilent) and incubated at 37° C. for 1-3 h. For the assay, 10-50 uL of acid-pH-challenged sample was mixed with 0-40 μL, of McIlvaine buffer pH 4.8, 25 μL, of 1 M citrate buffer pH 4.3 and 25 μL, of 4 mM MUGal in McIlvaine buffer pH 4.8. The reactions were mixed briefly and incubated at 37° C. for 30-180 minutes, prior to quenching with 100 μL, of 1 M sodium carbonate. Hydrolysis was analyzed using a SpectraMax® M2 microplate reader monitoring fluorescence (Ex. 355 nm, Em. 448 nm).
# [3] = HTP-analysis of supernatants pretreated with base (MUGal hydrolysis); conditions: challenge at pH 7.0; activity of the variant/activity of WT GLA (SEQ ID NO: 5); yeast supernatant
# Description: as §1
# GLA variants were challenged with basic (neutral) buffer to simulate the pHs that the variants encounter in the blood following their administration to a patient. First, 50 μL of yeast culture supernatant and 50 uL of McIlvaine buffer (pH 7.0-8.2) or 200 mM sodium bicarbonate (pH 9.1-9.7) were added to the wells of a 96-well round bottom plate. The plates were sealed and incubated at 37° C. for 1-18 h. For the assay, 10-50 μL of basic-pH-challenged sample was mixed with 0-40 μL, of McIlvaine buffer pH 4.8, 25 μL, of 1 M citrate buffer pH 4.3 and 25 μL, of 4 mM MUGal in McIlvaine buffer pH 4.8. The reactions were mixed briefly and incubated at 37° C. for 30-180 minutes, prior to quenching with 100 μL, of 1 M sodium carbonate. Hydrolysis was analyzed using a SpectraMax® M2 microplate reader monitoring fluorescence (Ex. 355 nm, Em. 448 nm).
Molecule,Relative Activity of GLA Variants After No Challenge (NC) [1],Relative Activity of GLA Variants After Challenge at pH 4.3 [2],Relative Activity of GLA Variants After Challenge at pH 7.0 [3]
"26 (protein, Synthetic Polypeptide sequence of Variant No. 26 of mature Human GLA) LDNGLARTPTMGWLHWERFMCNLDCQEEPDSCISEKLFMEMAELMVSEGWKDAGYEYLCIDDCWMAPQRDSEGRLQADPQRFPHGIRQLANYVHSKGLKLGIYADVGNKTCAGFPGSFGYYDIDAQTFADWGVDLLKFDGCYCDSLENLADGYKHMSLALNRTGRSIVYSCEWPLYMWSFQKPNYTEIRQYCNHWRNFADIDDSWKSIKSILDWTSFNQERIVDVAGPGGWNDPDMLVIGNFGLSWNQQVTQMALWAIMAAPLFMSNDLRHISPQAKALLQDKDVIAINQDPLGKQGYQLRQGDNFEVWERPLSGLAWAVAMINRQEIGGPRSYTIAVASLGKGVACNPACFITQLLPVKRKLGFYEWTSRLKSHINPTGTVLLQLENTMQMSLKDLLL",+ (+ = 0.5 to 1.5 relative activity over WT GLA (SEQ ID NO: 5)),+ (+ = 0.5 to 1.5 relative activity over WT GLA (SEQ ID NO: 5)),+ (+ = 0.5 to 1.5 relative activity over WT GLA (SEQ ID NO: 5))
"29 (protein, Synthetic Polypeptide sequence of Variant No. 29 of mature Human GLA) LDNGLARTPTMGWLHWERFMCNLDCQEEPDSCISEKLFMEMAELMVSEGWKDAGYEYLCIDDCWMAPQRDSEGRLQADPQRFPHGIRQLANYVHSKGLKLGIYADVGNKTCAGFPGSFGYYDIDAQTFADWGVDLLKFDGCYCDSLENLADGYKHMSLALNRTGRSIVYSCEWPLYMWPFQKPNYTEIRQYCNHWRNFADIDDSWKSIKSILDWTSFNQERIVDVAGPGGWNDPDMLVIGNFGLSWNQQVTQMALWAIMAAPLFMSNDLRHISPQAKALLQDKDVIAINQDPLGKQGYRLRKGDNFEVWERPLSGLAWAVAMINRQEIGGPRSYTIAVASLGKGVACNPACFITQLLPVKRKLGFYEWTSRLKSHVNPTGTVLLQLENTMQMSLKDLLL",+ (+ = 0.5 to 1.5 relative activity over WT GLA (SEQ ID NO: 5)),+ (+ = 0.5 to 1.5 relative activity over WT GLA (SEQ ID NO: 5)),+ (+ = 0.5 to 1.5 relative activity over WT GLA (SEQ ID NO: 5))
"28 (protein, Synthetic Polypeptide sequence of Variant No. 28 of mature Human GLA) LDNGLARTPTMGWLHWERFMCNLDCQEEPDSCISEKLFMEMAELMVSEGWKDAGYEYLCIDDCWMAPQRDSEGRLQADPQRFPHGIRQLANYVHSKGLKLGIYADVGNKTCAGFPGSFGYYDIDAQTFADWGVDLLKFDGCYCDSLENLADGYKHMSLALNRTGRSIVYSCEWPLYMWPFQKPNYTEIRQYCNHWRNFADIDDSWKSIKSILDWTSFNQERIVDVAGPGGWNDPDMLVIGNFGLSWNQQVTQMALWAIMAAPLFMSNDLRHISPQAKALLQDKDVIAINQDPLGKQGYRLRKGDNFEVWERPLSGLAWAVAMINRQEIGGPRSYTIAVASLGKGVACNPACFITQLLPVKRKLGFYEWTSRLKSHINPTGTVLLQLENTMQMSLKDLLL",+ (+ = 0.5 to 1.5 relative activity over WT GLA (SEQ ID NO: 5)),+ (+ = 0.5 to 1.5 relative activity over WT GLA (SEQ ID NO: 5)),+ (+ = 0.5 to 1.5 relative activity over WT GLA (SEQ ID NO: 5))
"30 (protein, Synthetic Polypeptide sequence of Variant No. 30 of mature Human GLA) LDNGLARTPTMGWLHWERFMCNLDCQEEPDSCISEKLFMEMAELMVSEGWKDAGYEYLCIDDCWMAPQRDSEGRLQADPQRFPHGIRQLANYVHSKGLKLGIYADVGNKTCAGFPGSFGYYDIDAQTFADWGVDLLKFDGCYCDSLENLADGYKHMSLALNRTGRSIVYSCEWPLYMWPFQKPNYTEIRQYCNHWRNFADIDDSWKSIKSILDWTSFNQERIVDVAGPGGWNDPDMLVIGNFGLSWNQQVTQMALWAIMAAPLFMSNDLRHISPQAKALLQDKDVIAINQDPLGKQGYQLRKGDNFEVWERPLSGLAWAVAMINRQEIGGPRSYTIAVASLGKGVACNPACFITQLLPVKRKLGFYEWTSRLRSHVNPTGTVLLQLENTMQMSLKDLLL",+ (+ = 0.5 to 1.5 relative activity over WT GLA (SEQ ID NO: 5)),++ (++ = >1.5 to 2.5 relative activity over WT GLA (SEQ ID NO: 5)),+ (+ = 0.5 to 1.5 relative activity over WT GLA (SEQ ID NO: 5))
"31 (protein, Synthetic Polypeptide sequence of Variant No. 31 of mature Human GLA) LDNGLARTPTMGWLHWERFMCNLDCQEEPDSCISEKLFMEMAELMVSEGWKDAGYEYLCIDDCWMAPQRDSEGRLQADPQRFPHGIRQLANYVHSKGLKLGIYADVGNKTCAGFPGSFGYYDIDAQTFADWGVDLLKFDGCYCDSLENLADGYKHMSLALNRTGRSIVYSCEWPLYMWPFQKPNYTEIRQYCNHWRNFADIDDSWKSIKSILDWTSFNQERIVDVAGPGGWNDPDMLVIGNFGLSWNQQVTQMALWAIMAAPLFMSNDLRHISPQAKALLQDKDVIAINQDPLGKQGYQLRQGDNFEVWERPLSGLAWAVAMINRQEIGGPRSYTIAVASLGKGVACNPACFITQLLPVKRKLGFYEWTSRLKSHINPTGTVLLQLENTMQMSLKDLLL",+ (+ = 0.5 to 1.5 relative activity over WT GLA (SEQ ID NO: 5)),+ (+ = 0.5 to 1.5 relative activity over WT GLA (SEQ ID NO: 5)),+ (+ = 0.5 to 1.5 relative activity over WT GLA (SEQ ID NO: 5))
"27 (protein, Synthetic Polypeptide sequence of Variant No. 27 of mature Human GLA) LDNGLARTPTMGWLHWERFMCNLDCQEEPDSCISEKLFMEMAELMVSEGWKDAGYEYLCIDDCWMAPQRDSEGRLQADPQRFPHGIRQLANYVHSKGLKLGIYADVGNKTCAGFPGSFGYYDIDAQTFADWGVDLLKFDGCYCDSLENLADGYKHMSLALNRTGRSIVYSCEWPLYMWPFQKPNYTEIRQYCNHWRNFADIDDSWKSIKSILDWTSFNQERIVDVAGPGGWNDPDMLVIGNFGLSWNQQVTQMALWAIMAAPLFMSNDLRHISPQAKALLQDKDVIAINQDPLGKQGYRLRQGDNFEVWERPLSGLAWAVAVINRQEIGGPRSYTIAVASLGKGVACNPACFITQLLPVKRKLGFYEWTSRLKSHINPTGTVLLQLENTMQMSLKDLLL",+ (+ = 0.5 to 1.5 relative activity over WT GLA (SEQ ID NO: 5)),+ (+ = 0.5 to 1.5 relative activity over WT GLA (SEQ ID NO: 5)),+ (+ = 0.5 to 1.5 relative activity over WT GLA (SEQ ID NO: 5))
